Results published in patent US20210147525A1 (University of California, published 2021).

Target: T1, Biotin-HSA (human, UniProt P02768, biotinylated (sites and number not given))
T1 construct: biotinylated, without the compound; not further described; also called biotinylated-HSA; biotinylated human albumin
Test: binding of biotinylated HSA without compound to transfected HEK293 cells, detected with avidin-alkaline phosphatase

T1 sequence (P02768 25-609 limits assumed): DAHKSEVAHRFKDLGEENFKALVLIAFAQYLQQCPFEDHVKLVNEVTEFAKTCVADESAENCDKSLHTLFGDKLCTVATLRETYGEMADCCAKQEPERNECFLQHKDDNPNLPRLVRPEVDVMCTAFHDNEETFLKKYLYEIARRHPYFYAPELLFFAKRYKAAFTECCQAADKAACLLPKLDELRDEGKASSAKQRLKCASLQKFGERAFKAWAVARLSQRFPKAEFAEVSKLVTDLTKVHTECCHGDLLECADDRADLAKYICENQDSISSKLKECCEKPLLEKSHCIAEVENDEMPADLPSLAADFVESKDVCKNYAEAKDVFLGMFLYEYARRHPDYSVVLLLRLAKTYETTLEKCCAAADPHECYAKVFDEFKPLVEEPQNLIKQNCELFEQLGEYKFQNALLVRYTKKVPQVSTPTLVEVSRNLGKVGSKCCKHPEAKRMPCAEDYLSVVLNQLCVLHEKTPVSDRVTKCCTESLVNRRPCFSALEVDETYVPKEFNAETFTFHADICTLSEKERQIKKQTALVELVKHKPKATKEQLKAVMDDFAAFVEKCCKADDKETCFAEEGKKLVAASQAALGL

binding result: no binding
B1: R-PLXDC1 (full length human PLXDC1 with an epitope tag at the N-terminus, on transfected cells) (receptor, not shown: small tags and cut ends)
chain: LSPQPGAGHDEGPGSGWAAKGTVRGWNRRARESPGHVSEPDRTQLSQDLGGGTLAMDTLPDNRTRVVEDNHSYYVSRLYGPSEPHSRELWVDVAEANRSQVKIHTILSNTHRQASRVVLSFDFPFYGHPLRQITIATGGFIFMGDVIHRMLTATQYVAPLMANFNPGYSDNSTVVYFDNGTVFVVQWDHVYLQGWEDKGSFTFQAALHHDGRIVFAYKEIPMSVPEISSSQHPVKTGLSDAFMILNPSPDVPESRRRSIFEYHRIELDPSKVTSMSAVEFTPLPTCLQHRSCDACMSSDLTFNCSWCHVLQRCSSGFDRYRQEWMDYGCAQEAEGRMCEDFQDEDHDSASPDTSFSPYDGDLTTTSSSLFIDSLTTEDDTKLNPYAGGDGLQNNLSPKTKGTPVHLGTIVGIVLAVLLVAAIILAGIYINGHPTSNAALFFIERRPHHWPAMKFRSHPDHSTYAEVEPSGHEKEGFMEAEQC
notes: also called TEM7
